The values below come from patent US20100098683A1 (Dana-Farber, published 2010).

This experiment concerns the target T1, GST-galectin-3 (human, UniProt P08515 1-218 = GST).
T1 construct: Full-length galectin-3 in pGEX4T1; also called GST-galectin-3 fusion protein; GST fusion with full-length galectin-3
The experiment in a line: GST-galectin-3 pull-down from BT549 lysates, anti-MUC1-C immunoblot. As for the experimental part:
Immunoblotting and precipitates. Lysates were prepared from subconfluent cells as described (Li et al., 2001).

T1 sequence (P08515 1-218, tags or fused parts left off): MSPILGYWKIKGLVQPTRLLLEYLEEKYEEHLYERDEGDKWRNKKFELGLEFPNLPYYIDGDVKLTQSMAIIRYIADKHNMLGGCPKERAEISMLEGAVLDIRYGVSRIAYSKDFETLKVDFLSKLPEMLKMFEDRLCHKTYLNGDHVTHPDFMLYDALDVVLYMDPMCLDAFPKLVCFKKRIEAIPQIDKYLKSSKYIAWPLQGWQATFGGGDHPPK

B1: MUC1-C(N36A) (receptor)
chain: SVVVQLTLAFREGTINVHDVETQFNQYKTEAASRYALTISDVSVSDVPFPFSAQSGAGVPGWGIALLVLVCVLVALAIVYLIALAVCQCRRKNYGQLDIFPARDTYHPMSEYPTYHTHGRYVPPSSTDRSPYEKVSAGNGGSSLSYTNPAVAATSANL
notes: Stably expressed in BT549 cells and tested in lysates; lacks the glycosylated 25-20 kDa species; also called MUC1-C with a N36A mutation
Consider B1, for which the binding result is “no binding”.
